Reference: US10844127 (MERUS N V, dated 2020)
Residue numbers refer to the chain shown, from its start. Like-named read-outs stand apart in the source and are kept apart here.

B1: PG3998 (antibody, IgG1, V domains shown)
VH: QVQLVQSGSELKKPGASVKVSCKASGYTFTNNAINWVRQAPGQGLEWMGWINTITGDPTYAQGFTGRFVFSLDTSVSTAYLQISSLKAEDTGVYYCAREEFLEWLFFDYWGQGTLVTVSS
VL: not shown
notes: Mono-specific bivalent full length IgG1 with the common light chain, from 293F cells; also called MF3998; MG3998
B2: PG4010 (antibody, IgG1, V domains shown)
VH: B1 VH with I34M, T59S, S77N, G92A
VL: not shown
notes: Mono-specific bivalent full length IgG1 with the common light chain; also called MF4010; MG4010
B3: PG4280 (antibody, IgG1, V domains shown)
VH: QVQLVQSGAEVKKPGASVKVSCKVSGYTLTELSMHWVRQAPGKGLEWMGGFDPEYGKTFFAQNFQGRVTMTEDTSADTAYMELSSLRSEDTAVYYCATEGYYETTTYYYNLFDSWGQGTLVTVSS
VL: not shown
notes: Mono-specific bivalent full length IgG1 with the common light chain; also called MF4280; MG4280
B4: PG4289 (antibody, IgG1, V domains shown)
VH: QVQLVQSGSELKKPGASVKVSCKTSGYTFTDYAMTWVRQAPGQGLEWMGWITTNTGDPTYAPGFTGRFVFSLDTSVSTAYLQISSLKAEDTAVYYCARVYHWIRGFEFWGQGTLVTVSS
VL: not shown
notes: Mono-specific bivalent full length IgG1 with the common light chain; also called MF4289; MG4289
B5: PG4003 (antibody, IgG1, V domains shown)
VH: QVQLVQSGSELKKPGASVKVSCKASGYTFPSFAMNWLRQAPGQGLEWMGWITTNTGDPTYAQGFSGRFVFSLDTSVSTAYLQISSLKAEDTAVYYCARVYNWIRGFDYWGQGTLVTVSS
VL: not shown
notes: Mono-specific bivalent full length IgG1 with the common light chain; also called MF4003; MG4003

Key:
human EGFR, full length [1] = molecular target: T1, human EGFR, full length (human, UniProt P00533 25-1210); assay: cell-based or functional assay
[2] = molecular target: T2, human EGFR ECD-Fc fusion protein (R&D Systems) (human, UniProt P00533 25-645); assay: phage ELISA, Fab on phage, immobilized EGFR, no IgG
T2 construct: extracellular domain; also called rhEGFR-Fc; EGFR-Fc; not shown: Fc part of the bought fusion protein, not described

[3] = molecular target: T3, chimeric cynomolgus-human EGFR (cynomolgus ECD, human trans-membrane …, UniProt P55245 25-1210 (rhesus entry)); assay: FACS, CHO cells transfected with chimeric cynomolgus/human EGFR, IgG at 5 µg/ml
T3 construct: also called cynomolgus EGFR; chimeric cyno-human receptor

[4] = molecular target: T2, human EGFR ECD-Fc fusion protein (R&D …); assay: phage ELISA, Fab on phage, immobilized EGFR, with competitor ICR10 (Domain I)
[5] = molecular target: T2, human EGFR ECD-Fc fusion protein (R&D …); assay: phage ELISA, Fab on phage, immobilized EGFR, with competitor EGFR.1 (Domain II)
[6] = molecular target: T2, human EGFR ECD-Fc fusion protein (R&D …); assay: phage ELISA, Fab on phage, immobilized EGFR, with competitor Cetuximab (Domain III)
[7] = molecular target: T2, human EGFR ECD-Fc fusion protein (R&D …); assay: phage ELISA, Fab on phage, immobilized EGFR, with competitor MatuzuMab (Domain III)
human EGFR, full length [8] = molecular target: T1, human EGFR, full length; assay: FACS on CHO cells stably expressing wtEGFR (CHO-wtEGFR)
[9] = molecular target: T3, chimeric cynomolgus-human EGFR; assay: FACS, CHO cells transfected with chimeric cynomolgus/human EGFR, IgG at 5 µg/ml; remark: listed apart in the source
CHO-delta II = molecular target: T4, CHO-delta II; assay: FACS on CHO cells expressing the domain II swap mutant (CHO-delta II)
T4 construct: also called EGFR HER3 swap varII ECD; domain II swap mutant

CHO-delta IV = molecular target: T5, CHO-delta IV; assay: FACS on CHO cells expressing the domain IV swap mutant (CHO-delta IV)
T5 construct: also called EGFR HER3 swap varIV ECD; domain IV swap mutant

CHO-delta III = molecular target: T6, CHO-delta III; assay: FACS on CHO cells expressing the domain III swap mutant (CHO-delta III)
T6 construct: also called EGFR HER3 swap varIII ECD; domain III swap mutant
T6 chain: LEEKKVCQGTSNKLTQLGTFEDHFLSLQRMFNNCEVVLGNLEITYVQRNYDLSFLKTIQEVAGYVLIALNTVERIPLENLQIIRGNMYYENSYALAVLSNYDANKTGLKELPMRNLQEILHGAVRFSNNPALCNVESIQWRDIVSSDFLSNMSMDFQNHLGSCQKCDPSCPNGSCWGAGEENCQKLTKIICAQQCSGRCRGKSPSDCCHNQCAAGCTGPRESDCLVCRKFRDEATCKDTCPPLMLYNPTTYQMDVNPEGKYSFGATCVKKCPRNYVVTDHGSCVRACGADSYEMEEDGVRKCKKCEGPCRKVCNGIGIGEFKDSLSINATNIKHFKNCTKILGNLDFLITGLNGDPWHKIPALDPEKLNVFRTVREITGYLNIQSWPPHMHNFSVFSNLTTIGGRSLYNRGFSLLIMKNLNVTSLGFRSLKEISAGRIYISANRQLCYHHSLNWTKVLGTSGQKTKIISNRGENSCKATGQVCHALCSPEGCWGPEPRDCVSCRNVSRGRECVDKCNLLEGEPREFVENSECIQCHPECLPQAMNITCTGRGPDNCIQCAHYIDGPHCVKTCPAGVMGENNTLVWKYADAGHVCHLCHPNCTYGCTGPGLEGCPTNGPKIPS

[10] = molecular target: T7, mouse EGFR ECD fused to human IgG1 Fc (Sino Biologicals cat. nr. 51091-M02H) (mouse; human, UniProt Q01279 25-647); assay: ELISA on coated mouse EGFR ECD-human IgG1 Fc
T7 construct: extracellular domain; also called murine EGFR; not shown: human IgG1 Fc

CHO-vIII = molecular target: T8, CHO-vIII (human, UniProt P00533); assay: FACS on CHO cells expressing EGFR variant III (CHO-vIII)
T8 construct: expressed on CHO cells; also called EGFR variant III

| Binder | EGFR blocking activity compared to cetuximab (inhibition of EGF-induced cell death of A431 cells) (human EGFR, full length [1]) | OD [2] | binding result [3] | OD [4] | OD [5] | OD [6] | OD [7] | binding result (human EGFR, full length [8]) | binding result [9] | binding result (CHO-delta II) | binding result (CHO-delta IV) | binding result (CHO-delta III) | binding result [10] | binding result (CHO-vIII) |
| --- | --- | --- | --- | --- | --- | --- | --- | --- | --- | --- | --- | --- | --- | --- |
| B1 | > 100% | 2.49 | binds | 2.23 | 2.34 | 0.101 | 0.671 | – | – | – | – | – | – | – |
| B2 | – | – | – | – | – | – | – | binds | binds | binds | binds | no binding | – | – |
| B3 | 100% | 2.55 | binds | 2.3 | 2.13 | 1.14 | 0.613 | – | – | – | – | – | no binding (tested: 5 µg/ml) | – |
| B4 | 80% | 2.28 | binds | 2.05 | 2.23 | 2.22 | 2.36 | – | – | – | – | – | – | – |
| B5 | – | – | – | – | – | – | – | binds | binds | binds | binds | binds | – | no binding |
